Test results: US20120316071A1 (published 2012)
Each block holds one binder with its values, some of them ahead of it.

Tests used:
[1] = target: T1, rHuman EGF R/Fc Chimera, CF (R&D Systems Cat#344-ER) (human, UniProt P00533 25-645); assay: ECL Multispot (MSD) assay, antigen spotted on plate, 10 nM Fab; blank spot 338
T1 construct: Bought recombinant Fc chimera; also called epidermal growth factor receptor; Fc part of the bought chimera not given

[2] = target: T2, rHuman IGF-1 sR, CF (R&D Systems Cat#391-GR) (human, UniProt P08069 31-932); assay: as above
T2 construct: Bought soluble receptor; also called insulin-like growth factor-1 soluble receptor

[3] = target: T3, rHuman ErbB2/Fc Chimera, CF (R&D Systems Cat#1129-ER) (human, UniProt P04626 23-652); assay: as above
T3 construct: Bought recombinant Fc chimera; also called human epidermal growth factor 2 receptor; Fc part of the bought chimera not given

[4] = target: T4, rHuman HGF R/c-MET/Fc Chimera, CF (R&D Systems Cat#358-MT/CF) (human, UniProt P08581 25-932); assay: as above
T4 construct: Bought recombinant Fc chimera; also called HGF R/Fc; hepatocyte growth factor receptor; Fc part of the bought chimera not given
T4 sequence (P08581 25-932, change not shown): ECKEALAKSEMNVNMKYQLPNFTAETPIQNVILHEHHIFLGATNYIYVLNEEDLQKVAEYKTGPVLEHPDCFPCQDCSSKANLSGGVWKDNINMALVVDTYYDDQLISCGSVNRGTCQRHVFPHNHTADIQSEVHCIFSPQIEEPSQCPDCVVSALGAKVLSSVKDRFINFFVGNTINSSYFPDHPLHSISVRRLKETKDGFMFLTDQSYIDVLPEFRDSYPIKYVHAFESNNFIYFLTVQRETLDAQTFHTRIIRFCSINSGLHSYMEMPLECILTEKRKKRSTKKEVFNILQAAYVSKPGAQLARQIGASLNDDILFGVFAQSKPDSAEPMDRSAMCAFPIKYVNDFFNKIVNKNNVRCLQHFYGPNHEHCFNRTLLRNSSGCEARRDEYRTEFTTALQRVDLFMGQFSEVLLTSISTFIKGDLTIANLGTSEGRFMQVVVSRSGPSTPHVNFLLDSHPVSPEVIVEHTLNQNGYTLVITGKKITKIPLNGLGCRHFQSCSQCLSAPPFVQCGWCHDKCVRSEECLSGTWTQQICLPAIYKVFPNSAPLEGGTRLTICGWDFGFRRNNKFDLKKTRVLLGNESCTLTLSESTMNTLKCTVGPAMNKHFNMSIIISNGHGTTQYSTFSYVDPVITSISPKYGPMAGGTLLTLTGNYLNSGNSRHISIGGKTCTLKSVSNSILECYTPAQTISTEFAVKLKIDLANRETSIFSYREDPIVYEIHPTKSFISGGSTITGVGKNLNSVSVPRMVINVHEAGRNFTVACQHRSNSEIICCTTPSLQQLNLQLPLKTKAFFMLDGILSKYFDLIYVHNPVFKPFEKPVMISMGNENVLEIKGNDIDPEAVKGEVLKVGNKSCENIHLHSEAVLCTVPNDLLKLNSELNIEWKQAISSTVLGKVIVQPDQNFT

[5] = target: T5, rHuman P-Cadherin/Fc Chimera, CF (R&D Systems Cat#861-PC) (human, UniProt P22223 108-654); assay: as above
T5 construct: Bought recombinant Fc chimera; Fc part of the bought chimera not given

[6] = target: T6, Recombinant Human DLL4 (R&D Systems Cat#1506-D4/CF) (human, UniProt Q9NR61 27-524); assay: as above
T6 construct: Bought recombinant protein; also called delta-like protein 4; rHuman DLL4

[7] = target: T1, rHuman EGF R/Fc Chimera, CF (R&D …); assay: ECL Multispot (MSD) assay, antigen spotted on plate, 10 nM Fab; blank spot 407
[8] = target: T2, rHuman IGF-1 sR, CF (R&D Systems …); assay: as above
[9] = target: T3, rHuman ErbB2/Fc Chimera, CF (R&D …); assay: as above
[10] = target: T4, rHuman HGF R/c-MET/Fc Chimera, CF (R&D …); assay: as above
[11] = target: T5, rHuman P-Cadherin/Fc Chimera, CF (R&D …); assay: as above
[12] = target: T6, Recombinant Human DLL4 (R&D Systems …); assay: as above
[13] = target: T7, rHuman CD44/Fc Chimera, CF (R&D Systems Cat#3660-CD) (human, UniProt P16070 21-220); assay: ECL Multispot (MSD) assay, antigen spotted on plate, 10 nM Fab; blank spot 367
T7 construct: Bought recombinant Fc chimera; Fc part of the bought chimera not given

[14] = target: T1, rHuman EGF R/Fc Chimera, CF (R&D …); assay: as above
[15] = target: T8, rHuman Notch-1/Fc Chimera, CF (R&D Systems Cat#3647-TK) (human, UniProt P46531 19-526); assay: as above
T8 construct: Bought recombinant Fc chimera; Fc part of the bought chimera not given

[16] = target: T2, rHuman IGF-1 sR, CF (R&D Systems …); assay: as above
[17] = target: T3, rHuman ErbB2/Fc Chimera, CF (R&D …); assay: as above
[18] = target: T4, rHuman HGF R/c-MET/Fc Chimera, CF (R&D …); assay: as above
[19] = target: T5, rHuman P-Cadherin/Fc Chimera, CF (R&D …); assay: as above
[20] = target: T9, rHuman Erythropoietin R/Fc Chimera, CF (R&D Systems Cat#963-ER) (human, UniProt P19235 25-250); assay: as above
T9 construct: Bought recombinant Fc chimera; also called EPO R; EPO R/Fc; Fc part of the bought chimera not given
T9 sequence (looked up): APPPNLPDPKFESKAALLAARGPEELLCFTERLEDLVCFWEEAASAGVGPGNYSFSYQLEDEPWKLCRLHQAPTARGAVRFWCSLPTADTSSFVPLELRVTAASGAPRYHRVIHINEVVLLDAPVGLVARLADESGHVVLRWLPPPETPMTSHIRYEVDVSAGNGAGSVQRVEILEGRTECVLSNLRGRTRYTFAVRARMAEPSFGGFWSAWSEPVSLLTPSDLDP

[21] = target: T6, Recombinant Human DLL4 (R&D Systems …); assay: as above
[22] = target: T7, rHuman CD44/Fc Chimera, CF (R&D Systems …); assay: ECL Multispot (MSD) assay, antigen spotted on plate, 10 nM Fab; blank spot 151
[23] = target: T1, rHuman EGF R/Fc Chimera, CF (R&D …); assay: as above
[24] = target: T8, rHuman Notch-1/Fc Chimera, CF (R&D …); assay: as above
[25] = target: T2, rHuman IGF-1 sR, CF (R&D Systems …); assay: as above
[26] = target: T3, rHuman ErbB2/Fc Chimera, CF (R&D …); assay: as above
[27] = target: T4, rHuman HGF R/c-MET/Fc Chimera, CF (R&D …); assay: as above
[28] = target: T5, rHuman P-Cadherin/Fc Chimera, CF (R&D …); assay: as above
[29] = target: T9, rHuman Erythropoietin R/Fc Chimera, CF …; assay: as above
[30] = target: T6, Recombinant Human DLL4 (R&D Systems …); assay: as above
[31] = target: T7, rHuman CD44/Fc Chimera, CF (R&D Systems …); assay: ECL Multispot (MSD) assay, antigen spotted on plate, 10 nM Fab; blank spot 322
[32] = target: T1, rHuman EGF R/Fc Chimera, CF (R&D …); assay: as above
[33] = target: T8, rHuman Notch-1/Fc Chimera, CF (R&D …); assay: as above
[34] = target: T2, rHuman IGF-1 sR, CF (R&D Systems …); assay: as above
[35] = target: T3, rHuman ErbB2/Fc Chimera, CF (R&D …); assay: as above
[36] = target: T4, rHuman HGF R/c-MET/Fc Chimera, CF (R&D …); assay: as above
[37] = target: T5, rHuman P-Cadherin/Fc Chimera, CF (R&D …); assay: as above
[38] = target: T9, rHuman Erythropoietin R/Fc Chimera, CF …; assay: as above
[39] = target: T6, Recombinant Human DLL4 (R&D Systems …); assay: as above

B3: Fab VH1-46_IGHD6-6*01_IGHJ1*01 S102A/S103P/S104F/H111F S84T & L6_IGKJ1*01 (Fab, V domains shown)
VH: QVQLVQSGAEVKKPGASVKVSCKASGYTFTSYYMHWVRQAPGQGLEWMGIINPSGGSTSYAQKFQGRVTMTRDTSTSTVYMELTSLRSEDTAVYYCAREEYAPFSAEYFQFWGQGTLVTVSS
VL: not shown
notes: Fab expressed in E. coli: VH joined to CH1 from Plasmid A (with His6 and Flag tags), VL joined to kappa CL from Plasmid C; also called APFF S84T
ECL signal [22]: 352
ECL signal [23]: 293
ECL signal [24]: 372
ECL signal [25]: 281
ECL signal [26]: 297
ECL signal [27]: 274
ECL signal [28]: 180
ECL signal [29]: 328
ECL signal [30]: 163000

B4: Fab VH1-46_IGHD6-6*01_IGHJ1*01 S102A/S103P/S104F/H111F S84R & L6_IGKJ1*01 (Fab, V domains shown)
VH: QVQLVQSGAEVKKPGASVKVSCKASGYTFTSYYMHWVRQAPGQGLEWMGIINPSGGSTSYAQKFQGRVTMTRDTSTSTVYMELRSLRSEDTAVYYCAREEYAPFSAEYFQFWGQGTLVTVSS
VL: not shown
notes: Fab expressed in E. coli: VH joined to CH1 from Plasmid A (with His6 and Flag tags), VL joined to kappa CL from Plasmid C; also called APFF S84R
ECL signal [31]: 335
ECL signal [32]: 435
ECL signal [33]: 377
ECL signal [34]: 395
ECL signal [35]: 372
ECL signal [36]: 392
ECL signal [37]: 310
ECL signal [38]: 393
ECL signal [39]: 139000

Second part, the binder after the results:

ECL signal [1]: 425
ECL signal [2]: 468
ECL signal [3]: 379
ECL signal [4]: 332
ECL signal [5]: 399
ECL signal [6]: 149000
ECL signal [7]: 329
ECL signal [8]: 357
ECL signal [9]: 292
ECL signal [10]: 237
ECL signal [11]: 277
ECL signal [12]: 126000
B1: Fab VH1-46_IGHD6-6*01_IGHJ1*01 S102A/S103P/S104F/H111F & L6_IGKJ1*01 (Fab, V domains shown)
VH: QVQLVQSGAEVKKPGASVKVSCKASGYTFTSYYMHWVRQAPGQGLEWMGIINPSGGSTSYAQKFQGRVTMTRDTSTSTVYMELSSLRSEDTAVYYCAREEYAPFSAEYFQFWGQGTLVTVSS
VL: not shown
notes: Fab expressed in E. coli: VH joined to CH1 from Plasmid A (with His6 and Flag tags), VL joined to kappa CL from Plasmid C; also called APFF; H:APFF & L:wt

ECL signal [13]: 386
ECL signal [14]: 301
ECL signal [15]: 400
ECL signal [16]: 405
ECL signal [17]: 354
ECL signal [18]: 317
ECL signal [19]: 517
ECL signal [20]: 528
ECL signal [21]: 164000
B2: Fab VH1-46_IGHD6-6*01_IGHJ1*01 S102A/S103P/S104F/H111F S84K & L6_IGKJ1*01 (Fab, V domains shown)
VH: QVQLVQSGAEVKKPGASVKVSCKASGYTFTSYYMHWVRQAPGQGLEWMGIINPSGGSTSYAQKFQGRVTMTRDTSTSTVYMELKSLRSEDTAVYYCAREEYAPFSAEYFQFWGQGTLVTVSS
VL: not shown
notes: Fab expressed in E. coli: VH joined to CH1 from Plasmid A (with His6 and Flag tags), VL joined to kappa CL from Plasmid C; also called APFF S84K
